Data published in publication PMC2744670 (2009).

Biological target: T1, CCR1 (Homo sapiens, UniProt P32246)
T1 chain: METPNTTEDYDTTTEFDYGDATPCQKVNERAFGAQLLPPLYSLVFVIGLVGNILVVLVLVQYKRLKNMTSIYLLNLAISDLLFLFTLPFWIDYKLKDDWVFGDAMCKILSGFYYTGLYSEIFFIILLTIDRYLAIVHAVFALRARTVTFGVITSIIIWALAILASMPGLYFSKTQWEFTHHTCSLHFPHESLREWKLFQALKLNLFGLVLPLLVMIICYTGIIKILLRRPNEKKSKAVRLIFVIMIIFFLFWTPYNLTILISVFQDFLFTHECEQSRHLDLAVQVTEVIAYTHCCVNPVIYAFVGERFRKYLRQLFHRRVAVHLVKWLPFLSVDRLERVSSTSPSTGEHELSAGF
Assay: competition binding with [125I]CCL3 on transfected COS-7 cells

B1: U83A (protein)
chain: FICSSPDAELFSEKSRMSSSVLLGCLLCCMDWSAAVPGKTEPFRKLFDAIMIKKLKSCSAAYPSDLDEGSMCDMADASPTSLELGLSKLDKES
IC50: 0.4 nM
